The nanobody polyreactivity screen of Harvey et al. (2022)

Assay: yeast display, Sf9 membrane polyspecificity reagent, FACS + sequencing; frameworks hold sequencing errors
Procedure, shortened: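 A synthetic nanobody library was expressed on Saccharomyces cerevisiae BJ5465 by galactose induction for 36–48 hours. The library was stained for 1 hour at 4 °C with 10% biotinylated, detergent-solubilized Sf9 membrane reagent and enriched with streptavidin microbeads before FACS. Low and high (top ~1%) gates were set on anti-HA fluorescence for expression and streptavidin fluorescence for reagent binding, and each polyreactivity label reflects the gate of origin.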

QDQLVESGGGLVQAGGSLRLICDASGSILWHYAMGWYRQAPGTEREWVAAITQRGGSTYYADSEKGRFTISRDTAKYNVYLQMNSLKPEDTAVYYFNTYPTRTYPSYYYWRQGTQVTVSS
polyreactivity (PSR sort gate): high polyreactivity

QVQLVESGGGLVQAGGSLRLSCAASGFTFYRYAMGWYRQAPGKERELVAAITGGGSTYYADSVKGRFTISRDNAKNTVYLQMNSLKPEDTAVYYCNADIRAYTVLTGGYIYDYWGQGTQVTVSS
polyreactivity (PSR sort gate): high polyreactivity

QVQLVESGGGLVQAGGSLRLSCAASGSNFGYNAIGWYRKAPGKEREFVAGISWSGGRTYYADSEKGRFTISRDNAKNTVYLQMNSLKPEDTAVYYCAAPSRPAPRFDYWGQGTQVTVSS
polyreactivity (PSR sort gate): low polyreactivity

QVHLVESGGGLVQAGGSLRLSCAASGSIFGSQNAMGWYRQAPGKERELVAAYYTARGARTYYADSVKGRFTISRDNAKNTVYLQMNSLKPEDTAVYYCAPRRYGRYRYDYWGQGTQVTVSS
polyreactivity (PSR sort gate): low polyreactivity

QVQLVESGGGLVQAGGSLRLSCAASGSIFYQNAMGWYRQAPGKEREFVAAIRSSGSSTYYADSVKGRFTISRDNAKNTVYVQMNCLKPEDTAVYYCAADNPGGYRGKVDYWGQGTQVTVSS
polyreactivity (PSR sort gate): high polyreactivity

QVQLVESGGGLVQAGGSLRLSCAASGSTFASYAMGWSRQAPGKERELVAAIRWRGGTTYYADSVKGRFTISRDNAKNTVYLQMNSLKPEDTAVYYCNADRYYLYYYWGQGTQVTVSW
polyreactivity (PSR sort gate): low polyreactivity

QVQLVESGGGLVQARGSLRLSCAASRLIFTWYAMRWSRHAPGKERELVAAISWSDDSTNYADSVKGRFTISRDNAKNTVYLLMNSLKPEDTAVYYCATQLDYGGRVGDADDYWGQGTQVTVSS
polyreactivity (PSR sort gate): low polyreactivity

QVQLVESGGGLVQAGGSLRLSCAASGFTFRYNDMGWYRQAPGKERELVAVISSDGTTNYADSVKGRFTISRDNAKNTVYLQMNSLKPEDTAVYYCAAWEFRGNAYYVYAFDYWGQGTQVTVSS
polyreactivity (PSR sort gate): low polyreactivity

QVQLVESGGGLVQAGGSLRLSCAASGFILPHYTMGWYRQAPGKERELVAAITSGVSTYYADSVKGRFTISRDNAKNTVYLQMNSLKPEDTAVYYCNALATYIGYKYDYWGQGTQVTVSS
polyreactivity (PSR sort gate): low polyreactivity

QVQLVESGGGLVQAGGSLRLSCAASGFTFYPYAMGWYRQAPGKERELVAAIRISGGSTYYADSVKGRFTISRDTAKNTVYLQMNSLKPEDTAVYYCAAKYPYYSSYAYGYWGQGTQVTVSS
polyreactivity (PSR sort gate): high polyreactivity

QVQLVESGGGLVQAGGSLRLSCAASGRTFYPYDLGWYRQEPGKERELVAAIRENGGSTYFADSVKGRFTISRDNAKNTVYLQLTSLKPEDNAVYYCAARNTRYWRYEYWGLGTQVTVSS
polyreactivity (PSR sort gate): high polyreactivity

QVQLVESGGGLVQAGGSLRLSCAASGRTFRLYAMGWYRQAPGKERELVAAITRGGRTNYADSVKGRFTISRDNAKNTVYLQMNSLKPEDTAVYYCATDLVGAGVKGVRFVGRYRGDYWGQGTQVTVSS
polyreactivity (PSR sort gate): low polyreactivity

QVQLVESGGGLVQAGGSVRLSCAASGSTFLYNAMGWYRQAPGKEREVVAGIRRSGGSTYYADSVKGRFTISRANAKNTVYLQMNSLKPEDTAVYYCAVVPAMYRYRVVTYAYDYWGQGTQVNVSS
polyreactivity (PSR sort gate): low polyreactivity

QVQLVESGGGLVQAGGSLRLSCAASGSIFKYYAKGWYRQAPGKERELVAAITIGGNTNYADSVKGRFTISRDNAKNTVYLQMNSLKPEDTAVYYCATGGYYSAIVYGGYDYWGHGTQVTVSS
polyreactivity (PSR sort gate): low polyreactivity

QVQLVESGGGLVQAGGSLRLSCAASGIIFGYYAMGWYRQAPGKERELVAAIDWTGGNTYYAVSVKGRFTISRDNAKNTVYLQMNSLKPEDTAVYYCAADYNSQEDYWGQGTQVTVSS
polyreactivity (PSR sort gate): low polyreactivity

QDQLVDSGVCLVQARGSLRLSCAASGRIFDAYTMGWYRQAPGKESELVASITGRDGSTYYADSVKGRFTISRDNAKNTVYLQMNSLKPEDTAVDYCNAKYSSFGIRYNYWGQGTQVTVSS
polyreactivity (PSR sort gate): high polyreactivity

QVQLQESGGVLVQEGGSLRLSCAASGNISPQADMGWYRQATGTERELVASIGTGGTTNYADSVKGRFTISRDNAKNTVYLQMNRLKPDDTAVYYCAAVRYEYNPYDYWGQGTQVTVSS
polyreactivity (PSR sort gate): low polyreactivity

QVQIVESGGGLVQAGGSLRLSCAASGIIFGRNTMGWYRQAPGKERELVAGISSNGGSTYYADSVKGRFTISRDNAKNTVYLQMNSLKPEDTAVYYCAAYYNIPDRRRVGYDYWGQGTQVTVSS
polyreactivity (PSR sort gate): high polyreactivity

QVQLVESGGGLVQAGGSLRLSCAASGRTFNGNAMGWYRQAPGKERELVAAISWSGGSTYYADSVKGRFTISRDNAKNTVYLQMNSLKPEDTAVYYCNADYFAWDLMYYWGQGTQVTVSS
polyreactivity (PSR sort gate): low polyreactivity

QVQLVESGGGLVQAGGSLRLSCAASGIIFGYYAMGWYRQAPAKERELVAAISQSGGDTYYADSVKGRYTISRDLAKNTVYLQMNSVKPEDTAVYYCAASVWYYPMDYWGQGTHVTVSS
polyreactivity (PSR sort gate): low polyreactivity

HVQLVESGGGLVQAGGSLRLSCAASGRTFARYAMGWYRQAPGKERELVAAITRGGRTNYADSVKGRFTSSRDNAKNTVYLQMNSLKPEDTAVYYCNAYFVNPYDYWGQGTQVTVSS
polyreactivity (PSR sort gate): high polyreactivity

QVQLVESGGGLVQAGGSLRLSCAASGSIFDTYAMGWYRQATGKERELVSTISWSGDSKYYADSVKGRFTISRDNAKNTVYLQINSLKPEDTAVYYCAADVGQVWDHEDYDYWGQGTQVTVSS
polyreactivity (PSR sort gate): low polyreactivity

QVQLVESGGGLVQAGGSLRLSCAASGRTFKKYAMGWYRQAPGTERELVAAFTGSGGSTYYADSVKGRFTISRDNAKNTVYLKMNSLKPEDTAVYYCAAYAYGVWHSQDGGNYWGQGTQVTVSS
polyreactivity (PSR sort gate): low polyreactivity

QVQLVESGGGLVQAGGSLRLSCAASGGTFGINDMGWYRQAPGKERDLVAAISWSGGDTYYADSVKGRFTISRDNAKNTVYLQRNSLKPEDTAVYYCAADYHYTKSMYYWGQGTQVSVSS
polyreactivity (PSR sort gate): low polyreactivity

QVQHVESGAGLVQAGGSLRLTCAASARTFKPYARGWYRQPPGKERELLAVISFSGGSTYYADSVKGRFTISRDNSKNTFYLQMNSLKPEDTAVYYCNAEGVTRQGGYDYWGQGTQVTVSS
polyreactivity (PSR sort gate): high polyreactivity

QVQLVESGGGLVQAGGSLRLSCAASGRIFRIYAMGWYRQAPGKERELVAAISWSGGRTYYADSVKGRFTISRDNAKNTVYLQMNSLIREDTAVYYCNADSYSRRGFEYDYWGQGTQVTVSS
polyreactivity (PSR sort gate): high polyreactivity

QVELVESGGGLVQAGGSLRLSCAASGFTFDRYAMGWYRQAPGTERELVAALTRRGTTTYYADSVKGRFTISRDNAKNTVYLQMNSLKPEDTAVYYCAAKRGSVSRPDYGANDESWGQGTQVTVSS
polyreactivity (PSR sort gate): high polyreactivity

QVQLVESGGGLVQAGGSLRLSCAASGSIFHYYTMGWYRQAPGKERELVAGISRSGTSTFYADSVKGRFTISRDNAKKTVYLQMNSLKPEDTAVSYCNAYSPGSYYYWPYDYWGQGTQVTVSS
polyreactivity (PSR sort gate): high polyreactivity

QVQLVESGGGLVQAGGSLRLSCDASGFIFYEYAMGWSRQAPGKEREFVAAISRSGTRTYYADSVKGRFTISRDNAKNTVYLQMNSLKPEDTAVYYCAAAYYGYARWRGPRKMDYWGQGTQVTVSS
polyreactivity (PSR sort gate): high polyreactivity

QVQLQESAGGLVQAGGSLRRSCAASGSIFSNCAMGWYRQTPGKERELVASITAGGNNNYADSVKGRFTISRDNAKNTVYLPMNSLKPEETAVYYCNRRYPGPDSFEHYYYYRYDYWGQGTQVTVSS
polyreactivity (PSR sort gate): low polyreactivity

QVQLVESGGGLVQAGGSLRLSCAASGITFKGYTMGWYRQAPGTERELVATISRGGRTYADSVKGRFTISRDNAKNTVYLQMNSLKPEDTAVYYCAADKYWAQNDYWGQGTQVTVSS
polyreactivity (PSR sort gate): low polyreactivity

QVQLVESGGGLVQAGGSLRLSCAASGRTFRYNPMVWYRQAPGKERELVAAITWSGGSTYYADSVKGRFKISRDNAKNTVYLQMNSLKPEDTAVYYCNRRYYAYDWGQGTQVTVSS
polyreactivity (PSR sort gate): high polyreactivity

QVQLVESGGGLVQAGGSLRLSCAASARTFTRYAIGWYRQAPGKERELVAAISFSVGSTYYADSVKGRFTISRDNAKYSVYLQMNRLKPEDTAVYYCARPSGDAWEGPRMDYWGQCTQVTVSS
polyreactivity (PSR sort gate): low polyreactivity

QVQLVESGGGLVQAGGSLRLSCAASGSISPQNVMGWYRQAPGKERELVAAITGGGSTNYADSVKGRFTISRDNAKNTVYLQMNSLKPEDTAVYYCNADYFQDRLDYWGHGTQVTVSS
polyreactivity (PSR sort gate): low polyreactivity

QVQLVDTGGGLVQAGGILRIRCAASGRIFHGNSMVCYRQAPGKERELVAAITWGGTRTYYSDSVKGRFTISRDNAKNTVYLQMNSLKPEDTAVYYCATDYGYTDRVTSGFDYWGQGNQVTVSS
polyreactivity (PSR sort gate): low polyreactivity

QVQLVESGGGLVQAGCSLRLSCAASGYMGWYRQAPGKERELVATISGSGGSTYYADSVKGRFTISRDNAKNTVYLQMNSLKPEDTAVYYCTTEIWGVNRSGYDYWGQGTQVTVSS
polyreactivity (PSR sort gate): low polyreactivity

QVQLVESGGGLVQAGGSLRLSCAASGSTFYGYAMGWYRQAPGKERELVAAIRSGGRTYYADSVKGRFTISRDNAKNTVYLQMNSLKPEDTAVYYCNARSFNYRTFGGKMGYWGQGTQVTVSS
polyreactivity (PSR sort gate): high polyreactivity

QVQLVESGGGLVQAGGSLRISCASSGNTFTSYAMGWYRQAPGKASELVASIDSDDSTNYADSVKGRFTISRDNAKNTDYFQMNSLKPEETAVFYCAASDNDDWYYVYHYDYWVQGTQVTVSS
polyreactivity (PSR sort gate): low polyreactivity

QVQLVESGGGLVQAGGSLRLSSADSGRIFNRYAMGSYRQAPGKERELVAAITGSGGRTYYADSVKGRFTISRDNAKNTVYLQMNSLKPEDTAVYYCAATSLIYGYRTYDYWGQGTQVTVSS
polyreactivity (PSR sort gate): high polyreactivity

QVQLVESGGGLVQAGGSLRLSCAASGRIFGKYPMGWYRQAPAKERELVAAIRITGGSTYYADSVKGRFTISRDNAKNTVYLQMNSLKPEDTAVYYCAAVYKYADVIYDYWGQGTQVTVSS
polyreactivity (PSR sort gate): high polyreactivity

QVQLVESGGGLVQAGGSLRLSCAASGSIFADNTMGWSRQAPGKERELVAAITSSGRTYYADSVTGRFTISRDNAKNTVYLQMKSLKPEDTAVYYCAAVIYFHDYSPYYYWGQGTQVTVSS
polyreactivity (PSR sort gate): high polyreactivity

QVQLVESGGGLVQAGGSLRLSCAASGSTFPKYAMGWYRQAPGKERELVAAISWSGDSTYYADSVKGRFTISRDNAKNSVYLQMNSLNPEDTAVYYCAAYNFIHAGPWEYDYWGQGTQVSVSS
polyreactivity (PSR sort gate): low polyreactivity

QVQLQESGGGLVLAGGSLRLSCSASGNISVYGSMGWYRQAPGKEREFVATIDPGTNTNYADSVKDRFTISRDNAKNTVYLQMTSLKPEDTAVYYCAVEAGSDGPYRYWGQGTQVTVSS
polyreactivity (PSR sort gate): low polyreactivity
